# Data: paper PMC3213152
# Tests used:
# [1] = biological target: Rck G118D mutant (Salmonella enterica serovar Typhimurium) (UniProt Q04817); assay: flow cytometry on cells; data not shown: FACS analysis with purified C4BP on the Rck G118D mutant against wt Rck
# [2] = biological target: Rck, outer membrane protein of Salmonella enterica serovar Typhimurium, expressed on E. coli BL21(DE3) from plasmid pRck (Salmonella enterica serovar Typhimurium strain SL1344) (UniProt Q04817); assay: flow cytometry on cells; E. coli BL21(DE3) pRck with wt C4BP or the CCP7 or CCP8 deletion mutant (10 µg/ml); detected with monoclonal anti-C4BP MK104, specific for CCP1 of the α-chain; MFI of wt C4BP set to 100%
# [3] = biological target: Rck, outer membrane protein of Salmonella enterica serovar Typhimurium, expressed on E. coli BL21(DE3) from plasmid pRck (Salmonella enterica serovar Typhimurium strain SL1344) (UniProt Q04817); assay: flow cytometry on cells; E. coli BL21(DE3) pRck in DPBS with purified C4BP (increasing amounts) or with wt C4BP or recombinant CCP deletion mutants at 10 µg/ml, 37°C; detected with sheep polyclonal anti-human C4BP; MFI of wt C4BP set to 100%
Substance,fold less C4BP bound than by wt Rck [1],percent reduction in binding against wt C4BP [2],percent reduction in binding against wt C4BP [3]
Human C4b-binding protein (C4BP) (from UniProt P04003 49-597; P20851 18-252) (complex),24 fold,,
Recombinant human C4BP mutant with CCP8 of the α-chain deleted (from UniProt P04003 49-597) (complex),,78%,60%
Recombinant human C4BP mutant with CCP7 of the α-chain deleted (from UniProt P04003 49-597) (complex),,84%,70%
